Results published in the supplement of paper PMC9112550, “Optimization of the antimicrobial peptide Bac7 by deep mutational scanning” (BMC Biology, 2022).
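Also: peptides expressed intracellularly from a pBAD plasmid library in pooled LB shake-flask culture, induced with 0.3% L-arabinose, DNA abundance read by NGS, three biological replicates, DESeq2 with apeglm shrinkage.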

What follows are sequences tested on Escherichia coli TOP10 (assay: shrunken log2 fold change of peptide-encoding DNA abundance (4.5 h post-induction vs induction); higher = less antimicrobial activity (less host growth inhibition)). Details: time post-induction: 4.5 h; library: site-saturation at positions 5, 18, 19, 20.
With RRIRMRPPRLPRPRPRPFCKPRP the “shrunken log2 fold change” value was -0.224.
In the case of RRIRDRPPRLPRPRPRPLWSPRP, the “shrunken log2 fold change” value is reported as -0.0446.
RRIRDRPPRLPRPRPRPCVDPRP was tested, and the “shrunken log2 fold change” value was 0.0635.
With RRIRHRPPRLPRPRPRPKWIPRP the “shrunken log2 fold change” value was -0.779.
With RRIRSRPPRLPRPRPRPAQDPRP the “shrunken log2 fold change” value was 0.235.
With RRIRWRPPRLPRPRPRPKMKPRP the “shrunken log2 fold change” value was 0.193.
With RRIRERPPRLPRPRPRPEPEPRP the “shrunken log2 fold change” value was 0.475.
For RRIRHRPPRLPRPRPRPFYMPRP, the “shrunken log2 fold change” value was -0.292.
In the case of RRIRFRPPRLPRPRPRPVAYPRP, the “shrunken log2 fold change” value is reported as -0.19.
With RRIRKRPPRLPRPRPRPDWQPRP the “shrunken log2 fold change” value was -0.0216.
For RRIRMRPPRLPRPRPRPSKNPRP, the “shrunken log2 fold change” value was 0.277.
With RRIRFRPPRLPRPRPRPSEPPRP the “shrunken log2 fold change” value was -0.0424.
With RRIRPRPPRLPRPRPRPDGFPRP the “shrunken log2 fold change” value was -0.0011.
RRIRVRPPRLPRPRPRPDFTPRP was tested, and the “shrunken log2 fold change” value was -0.282.
With RRIRRRPPRLPRPRPRPMTCPRP the “shrunken log2 fold change” value was 0.129.
For RRIRERPPRLPRPRPRPWLCPRP, the “shrunken log2 fold change” value was -0.0006.
With RRIRTRPPRLPRPRPRPFKNPRP the “shrunken log2 fold change” value was 0.0716.
With RRIRLRPPRLPRPRPRPQSTPRP the “shrunken log2 fold change” value was -0.0595.
For RRIRGRPPRLPRPRPRPQQYPRP, the “shrunken log2 fold change” value was -0.107.
With RRIRGRPPRLPRPRPRPGDDPRP the “shrunken log2 fold change” value was 0.911.
With RRIRMRPPRLPRPRPRPSERPRP the “shrunken log2 fold change” value was 0.365.
For RRIRWRPPRLPRPRPRPMDSPRP, the “shrunken log2 fold change” value was -0.198.
With RRIRLRPPRLPRPRPRPTIYPRP the “shrunken log2 fold change” value was -0.334.
For RRIRMRPPRLPRPRPRPNKGPRP, the “shrunken log2 fold change” value was 0.0758.
For RRIRMRPPRLPRPRPRPMVHPRP, the “shrunken log2 fold change” value was 0.0734.
In the case of RRIRMRPPRLPRPRPRPQDCPRP, the “shrunken log2 fold change” value is reported as 0.0414.
In the case of RRIRTRPPRLPRPRPRPMEEPRP, the “shrunken log2 fold change” value is reported as -0.25.
RRIRCRPPRLPRPRPRPWTPPRP was tested, and the “shrunken log2 fold change” value was -0.131.
With RRIRLRPPRLPRPRPRPYQWPRP the “shrunken log2 fold change” value was -0.241.
With RRIRVRPPRLPRPRPRPMGIPRP the “shrunken log2 fold change” value was 0.134.
RRIRARPPRLPRPRPRPIKHPRP was tested, and the “shrunken log2 fold change” value was -0.0409.
With RRIRFRPPRLPRPRPRPDKMPRP the “shrunken log2 fold change” value was 0.0125.
RRIRLRPPRLPRPRPRPASYPRP was tested, and the “shrunken log2 fold change” value was -0.308.
With RRIRWRPPRLPRPRPRPHMTPRP the “shrunken log2 fold change” value was 0.118.
With RRIRNRPPRLPRPRPRPLPQPRP the “shrunken log2 fold change” value was 0.229.
RRIRERPPRLPRPRPRPVALPRP was tested, and the “shrunken log2 fold change” value was -0.377.
For RRIRTRPPRLPRPRPRPFMFPRP, the “shrunken log2 fold change” value was -0.586.
RRIRIRPPRLPRPRPRPTLHPRP was tested, and the “shrunken log2 fold change” value was -0.377.
RRIRFRPPRLPRPRPRPNESPRP was tested, and the “shrunken log2 fold change” value was 0.0698.
In the case of RRIRSRPPRLPRPRPRPSMSPRP, the “shrunken log2 fold change” value is reported as 0.0307.
In the case of RRIRYRPPRLPRPRPRPTYPPRP, the “shrunken log2 fold change” value is reported as 0.105.
RRIRTRPPRLPRPRPRPYRRPRP was tested, and the “shrunken log2 fold change” value was -0.0138.
For RRIRTRPPRLPRPRPRPGSKPRP, the “shrunken log2 fold change” value was 0.0896.
RRIRCRPPRLPRPRPRPRLYPRP was tested, and the “shrunken log2 fold change” value was -0.307.
RRIRLRPPRLPRPRPRPDTIPRP was tested, and the “shrunken log2 fold change” value was -0.21.
For RRIRQRPPRLPRPRPRPNMSPRP, the “shrunken log2 fold change” value was -0.313.
For RRIRKRPPRLPRPRPRPMTFPRP, the “shrunken log2 fold change” value was -0.00803.
For RRIRHRPPRLPRPRPRPGWTPRP, the “shrunken log2 fold change” value was -0.00563.
With RRIRCRPPRLPRPRPRPMLDPRP the “shrunken log2 fold change” value was 0.0729.
RRIRVRPPRLPRPRPRPMGTPRP was tested, and the “shrunken log2 fold change” value was 0.113.
For RRIRDRPPRLPRPRPRPIMKPRP, the “shrunken log2 fold change” value was -0.195.
With RRIRARPPRLPRPRPRPPYNPRP the “shrunken log2 fold change” value was -0.399.
In the case of RRIRQRPPRLPRPRPRPLYEPRP, the “shrunken log2 fold change” value is reported as -0.671.
RRIRWRPPRLPRPRPRPPEEPRP was tested, and the “shrunken log2 fold change” value was 1.26.
For RRIRRRPPRLPRPRPRPMQAPRP, the “shrunken log2 fold change” value was 1.13.
In the case of RRIRWRPPRLPRPRPRPLTNPRP, the “shrunken log2 fold change” value is reported as -0.114.
RRIRSRPPRLPRPRPRPLSIPRP was tested, and the “shrunken log2 fold change” value was -0.447.
In the case of RRIRKRPPRLPRPRPRPMDPPRP, the “shrunken log2 fold change” value is reported as 0.115.
In the case of RRIRRRPPRLPRPRPRPNRRPRP, the “shrunken log2 fold change” value is reported as 0.231.
For RRIRARPPRLPRPRPRPLDWPRP, the “shrunken log2 fold change” value was 1.
For RRIRHRPPRLPRPRPRPAFDPRP, the “shrunken log2 fold change” value was -0.00345.
For RRIRVRPPRLPRPRPRPNYDPRP, the “shrunken log2 fold change” value was 0.273.
With RRIRFRPPRLPRPRPRPTNVPRP the “shrunken log2 fold change” value was -0.254.
RRIRFRPPRLPRPRPRPHRCPRP was tested, and the “shrunken log2 fold change” value was -0.0295.
RRIRPRPPRLPRPRPRPYQVPRP was tested, and the “shrunken log2 fold change” value was -0.203.
With RRIRYRPPRLPRPRPRPNEKPRP the “shrunken log2 fold change” value was -0.0256.
In the case of RRIRLRPPRLPRPRPRPLFMPRP, the “shrunken log2 fold change” value is reported as -0.546.
For RRIRMRPPRLPRPRPRPFWRPRP, the “shrunken log2 fold change” value was 0.463.
With RRIRERPPRLPRPRPRPLMDPRP the “shrunken log2 fold change” value was -0.134.
With RRIRNRPPRLPRPRPRPHQNPRP the “shrunken log2 fold change” value was -0.239.
With RRIRERPPRLPRPRPRPSMSPRP the “shrunken log2 fold change” value was -0.0748.
For RRIRSRPPRLPRPRPRPIVIPRP, the “shrunken log2 fold change” value was -0.872.
In the case of RRIRERPPRLPRPRPRPNGNPRP, the “shrunken log2 fold change” value is reported as -0.104.
RRIRARPPRLPRPRPRPTMEPRP was tested, and the “shrunken log2 fold change” value was 0.564.
For RRIRGRPPRLPRPRPRPPEYPRP, the “shrunken log2 fold change” value was 0.448.
